# How the values were obtained:
# [1] = target: EPHB2 (UniProt P29323); assay: phosphorylation enrichment, bacterial display (enrichment ratio); higher = better substrate or ligand; peptides without Tyr show the background
# [2] = system: AncSZ; assay: as above
# [3] = system: c-Src; assay: as above
# [4] = target: MERTK (UniProt Q12866); assay: as above
# [5] = target: EPHB1 (UniProt P54762); assay: as above
# [6] = system: c-Abl (mouse); assay: as above
# [7] = target: Jak2 (UniProt O60674); assay: as above
# Jak2, sequence (O60674 whole entry, looked up): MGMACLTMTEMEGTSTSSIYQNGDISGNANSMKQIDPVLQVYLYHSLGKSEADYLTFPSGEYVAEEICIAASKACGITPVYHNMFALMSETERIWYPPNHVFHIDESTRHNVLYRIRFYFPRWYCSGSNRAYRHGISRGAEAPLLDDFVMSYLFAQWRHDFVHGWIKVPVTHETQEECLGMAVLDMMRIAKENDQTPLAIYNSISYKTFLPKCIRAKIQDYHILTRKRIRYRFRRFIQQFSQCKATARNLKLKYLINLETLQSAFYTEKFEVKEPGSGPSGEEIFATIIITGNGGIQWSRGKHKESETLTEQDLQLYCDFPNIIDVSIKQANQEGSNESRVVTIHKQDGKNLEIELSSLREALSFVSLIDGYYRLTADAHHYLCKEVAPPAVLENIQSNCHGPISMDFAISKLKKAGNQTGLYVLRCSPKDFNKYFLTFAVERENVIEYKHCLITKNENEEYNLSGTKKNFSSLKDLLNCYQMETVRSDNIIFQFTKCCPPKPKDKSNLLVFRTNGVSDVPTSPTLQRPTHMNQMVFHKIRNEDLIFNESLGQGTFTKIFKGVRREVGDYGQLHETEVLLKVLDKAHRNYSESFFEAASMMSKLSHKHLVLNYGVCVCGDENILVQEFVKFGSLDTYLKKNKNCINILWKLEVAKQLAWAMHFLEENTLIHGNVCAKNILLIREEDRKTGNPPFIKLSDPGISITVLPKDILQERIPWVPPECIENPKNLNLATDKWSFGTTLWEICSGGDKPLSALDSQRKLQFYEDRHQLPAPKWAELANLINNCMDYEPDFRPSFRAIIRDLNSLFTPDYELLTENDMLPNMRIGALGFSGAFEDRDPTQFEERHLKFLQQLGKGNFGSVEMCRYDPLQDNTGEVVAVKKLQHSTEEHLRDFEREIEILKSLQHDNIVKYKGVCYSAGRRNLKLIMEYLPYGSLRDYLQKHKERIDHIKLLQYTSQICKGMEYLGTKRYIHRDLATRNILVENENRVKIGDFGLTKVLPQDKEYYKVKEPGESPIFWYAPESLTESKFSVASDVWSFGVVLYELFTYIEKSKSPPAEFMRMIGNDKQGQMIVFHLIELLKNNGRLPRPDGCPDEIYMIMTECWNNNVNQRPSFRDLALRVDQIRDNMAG
# [8] = target: Hck (UniProt P08631); assay: as above
# Hck, sequence (P08631 whole entry, looked up): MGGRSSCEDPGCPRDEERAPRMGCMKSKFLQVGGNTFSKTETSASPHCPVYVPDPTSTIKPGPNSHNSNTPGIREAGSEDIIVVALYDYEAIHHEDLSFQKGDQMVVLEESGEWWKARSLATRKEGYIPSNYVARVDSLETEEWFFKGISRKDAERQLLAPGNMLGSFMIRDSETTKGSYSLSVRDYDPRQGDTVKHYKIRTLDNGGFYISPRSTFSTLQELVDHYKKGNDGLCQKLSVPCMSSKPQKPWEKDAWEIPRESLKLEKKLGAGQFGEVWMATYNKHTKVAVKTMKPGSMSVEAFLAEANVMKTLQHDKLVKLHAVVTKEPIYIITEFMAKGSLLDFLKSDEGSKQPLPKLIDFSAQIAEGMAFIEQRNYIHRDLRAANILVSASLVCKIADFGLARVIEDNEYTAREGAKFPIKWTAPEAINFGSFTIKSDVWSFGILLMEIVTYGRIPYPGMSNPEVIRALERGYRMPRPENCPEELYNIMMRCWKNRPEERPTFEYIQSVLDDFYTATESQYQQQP
# [9] = target: Fes (UniProt P07332); assay: as above
# Fes, sequence (P07332 whole entry, looked up): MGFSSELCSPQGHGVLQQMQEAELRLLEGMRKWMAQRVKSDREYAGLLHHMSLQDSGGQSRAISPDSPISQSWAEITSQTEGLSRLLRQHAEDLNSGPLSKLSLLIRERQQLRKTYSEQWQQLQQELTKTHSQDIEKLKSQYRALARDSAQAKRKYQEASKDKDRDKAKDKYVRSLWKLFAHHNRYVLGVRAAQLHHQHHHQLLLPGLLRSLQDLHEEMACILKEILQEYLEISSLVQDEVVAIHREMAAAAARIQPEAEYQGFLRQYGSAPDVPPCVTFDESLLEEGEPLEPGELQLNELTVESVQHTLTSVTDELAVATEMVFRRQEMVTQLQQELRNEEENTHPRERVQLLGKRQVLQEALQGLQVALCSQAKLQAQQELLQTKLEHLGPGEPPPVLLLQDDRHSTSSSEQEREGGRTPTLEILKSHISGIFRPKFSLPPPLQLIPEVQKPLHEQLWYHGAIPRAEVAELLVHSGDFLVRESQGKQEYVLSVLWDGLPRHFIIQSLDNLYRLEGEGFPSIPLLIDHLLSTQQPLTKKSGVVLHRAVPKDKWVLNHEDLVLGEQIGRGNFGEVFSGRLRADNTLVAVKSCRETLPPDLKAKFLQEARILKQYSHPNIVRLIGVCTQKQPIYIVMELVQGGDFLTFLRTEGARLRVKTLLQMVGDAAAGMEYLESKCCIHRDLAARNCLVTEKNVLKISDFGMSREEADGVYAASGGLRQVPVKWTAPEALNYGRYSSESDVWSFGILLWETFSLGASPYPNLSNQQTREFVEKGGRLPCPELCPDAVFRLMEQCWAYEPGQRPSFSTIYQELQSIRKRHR
# [10] = target: Fyn (UniProt P06241); assay: as above
# Fyn, sequence (P06241 whole entry, looked up): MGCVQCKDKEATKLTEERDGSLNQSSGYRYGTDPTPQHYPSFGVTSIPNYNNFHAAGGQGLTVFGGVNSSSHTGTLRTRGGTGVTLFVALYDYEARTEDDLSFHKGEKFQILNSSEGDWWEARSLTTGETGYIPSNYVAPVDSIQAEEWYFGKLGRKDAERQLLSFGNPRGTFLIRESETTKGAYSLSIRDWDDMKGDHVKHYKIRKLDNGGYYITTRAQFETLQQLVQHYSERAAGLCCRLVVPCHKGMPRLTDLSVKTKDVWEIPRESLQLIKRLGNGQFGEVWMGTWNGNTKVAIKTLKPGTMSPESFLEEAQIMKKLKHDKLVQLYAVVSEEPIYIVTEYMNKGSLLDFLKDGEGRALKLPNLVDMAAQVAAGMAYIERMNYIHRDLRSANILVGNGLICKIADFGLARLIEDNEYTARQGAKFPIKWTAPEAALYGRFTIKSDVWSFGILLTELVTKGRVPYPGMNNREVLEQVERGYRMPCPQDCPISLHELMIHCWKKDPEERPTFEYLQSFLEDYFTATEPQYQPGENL
# [11] = system: Fer (mouse); assay: as above
# [12] = target: FGFR1 (UniProt P11362); assay: as above
# [13] = target: FGFR3 (UniProt P22607); assay: as above
# FGFR3, sequence (P22607 whole entry, looked up): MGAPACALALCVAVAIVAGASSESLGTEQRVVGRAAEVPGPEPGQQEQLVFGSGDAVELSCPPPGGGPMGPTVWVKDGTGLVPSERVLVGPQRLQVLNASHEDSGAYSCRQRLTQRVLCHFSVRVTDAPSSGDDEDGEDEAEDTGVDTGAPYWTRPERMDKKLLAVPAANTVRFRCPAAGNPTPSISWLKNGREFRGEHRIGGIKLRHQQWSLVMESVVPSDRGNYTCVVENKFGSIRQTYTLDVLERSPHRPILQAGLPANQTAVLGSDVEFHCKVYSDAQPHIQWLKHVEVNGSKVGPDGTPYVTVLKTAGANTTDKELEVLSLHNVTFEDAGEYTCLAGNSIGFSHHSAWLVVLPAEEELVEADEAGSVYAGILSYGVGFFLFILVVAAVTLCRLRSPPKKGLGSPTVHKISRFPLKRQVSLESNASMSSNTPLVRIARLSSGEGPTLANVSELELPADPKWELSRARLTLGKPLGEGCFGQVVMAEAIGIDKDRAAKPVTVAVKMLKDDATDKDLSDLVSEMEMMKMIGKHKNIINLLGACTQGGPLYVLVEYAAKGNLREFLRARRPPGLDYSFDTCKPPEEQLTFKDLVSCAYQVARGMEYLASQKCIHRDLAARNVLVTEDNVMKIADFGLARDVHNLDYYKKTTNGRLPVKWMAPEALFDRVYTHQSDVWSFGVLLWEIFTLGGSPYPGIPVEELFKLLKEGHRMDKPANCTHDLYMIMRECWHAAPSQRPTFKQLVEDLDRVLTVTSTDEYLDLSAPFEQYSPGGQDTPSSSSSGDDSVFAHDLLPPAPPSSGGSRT
# [14] = target: SHP2-C SH2; assay: SH2 binding enrichment of the phosphorylated peptide, bacterial display (enrichment ratio); higher = better substrate or ligand; peptides without Tyr show the background
# [15] = target: c-Src SH2; assay: as above
# [16] = target: Grb2 SH2 (UniProt P62993); assay: as above
# Grb2 SH2, sequence (P62993 whole entry, looked up, the tested form may be a part): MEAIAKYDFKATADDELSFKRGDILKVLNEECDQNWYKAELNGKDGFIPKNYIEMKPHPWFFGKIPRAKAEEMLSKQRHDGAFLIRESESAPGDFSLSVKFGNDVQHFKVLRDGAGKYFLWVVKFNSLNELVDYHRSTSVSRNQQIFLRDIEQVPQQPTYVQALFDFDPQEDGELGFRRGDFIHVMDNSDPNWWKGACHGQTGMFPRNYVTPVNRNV
# 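For SH2 binding enrichment of the phosphorylated peptide, bacterial display in this document: peptide library displayed on the E. coli surface as eCPX fusions, selected cells deep-sequenced, score is each peptide's frequency after selection divided by its frequency in the input.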
# 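For phosphorylation enrichment, bacterial display in this document: 11-residue human phosphosite peptides and single-mutation variants displayed on the E. coli surface, counted by deep sequencing, each peptide's frequency after selection divided by its frequency in the unselected input library; frequency after pTyr selection over input frequency; kinase dosed for 20-30% of maximal phosphorylation in three min.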
# EPHB1, sequence (P54762 whole entry, looked up): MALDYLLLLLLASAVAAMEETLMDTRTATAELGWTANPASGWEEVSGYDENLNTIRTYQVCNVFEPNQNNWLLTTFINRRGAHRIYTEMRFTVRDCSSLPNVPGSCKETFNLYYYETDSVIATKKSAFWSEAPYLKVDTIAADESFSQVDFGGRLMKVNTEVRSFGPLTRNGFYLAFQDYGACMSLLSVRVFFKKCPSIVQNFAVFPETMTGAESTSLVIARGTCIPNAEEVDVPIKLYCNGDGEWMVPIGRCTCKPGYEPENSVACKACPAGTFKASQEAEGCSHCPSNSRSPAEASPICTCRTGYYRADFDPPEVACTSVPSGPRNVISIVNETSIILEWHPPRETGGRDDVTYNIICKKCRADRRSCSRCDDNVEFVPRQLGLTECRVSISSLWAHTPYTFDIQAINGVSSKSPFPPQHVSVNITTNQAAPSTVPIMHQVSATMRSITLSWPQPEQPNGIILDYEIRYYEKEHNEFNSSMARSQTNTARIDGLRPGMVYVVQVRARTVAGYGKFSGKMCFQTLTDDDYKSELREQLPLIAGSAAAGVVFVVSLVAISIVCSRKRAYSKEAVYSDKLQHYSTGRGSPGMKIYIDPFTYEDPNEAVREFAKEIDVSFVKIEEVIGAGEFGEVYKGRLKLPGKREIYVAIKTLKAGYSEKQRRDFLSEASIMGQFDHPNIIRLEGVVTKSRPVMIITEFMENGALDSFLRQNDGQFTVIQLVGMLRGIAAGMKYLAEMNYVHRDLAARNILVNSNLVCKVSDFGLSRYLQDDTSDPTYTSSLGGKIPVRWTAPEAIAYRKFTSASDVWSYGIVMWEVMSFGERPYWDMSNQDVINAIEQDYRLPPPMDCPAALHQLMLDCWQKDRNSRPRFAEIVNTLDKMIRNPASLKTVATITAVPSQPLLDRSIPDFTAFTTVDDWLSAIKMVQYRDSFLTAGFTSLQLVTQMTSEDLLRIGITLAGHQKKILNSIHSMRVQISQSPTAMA
Sequence,phosphorylation enrichment [1],phosphorylation enrichment [2],phosphorylation enrichment [3],phosphorylation enrichment [4],phosphorylation enrichment [5],phosphorylation enrichment [6],phosphorylation enrichment [7],phosphorylation enrichment [8],phosphorylation enrichment [9],phosphorylation enrichment [10],phosphorylation enrichment [11],phosphorylation enrichment [12],phosphorylation enrichment [13],SH2 binding enrichment [14],SH2 binding enrichment [15],SH2 binding enrichment [16]
SDVNKYSTAFG [GJB3_Y16_G12D],0.387,0.521,0.361,0.393,0.467,0.509,0.451,0.386,0.67,0.42,0.462,0.348,0.459,0.553,0.617,0.777
SDYSRYARTSI [TERT_Y949_S948R],0.495,0.59,0.444,0.444,0.434,0.46,0.549,0.428,0.581,0.443,0.388,0.428,0.351,0.535,0.723,0.755
SDYYAYSPVQE [H6PD_Y449_R453Q],21.6,6.17,5.44,9.08,16.4,8.16,9.08,6.3,0.952,8.25,10.7,15.8,14.9,0.971,1.3,1.01
SEEVNYATLTF [CLEC12B_Y7_T6N],1.46,1.1,1.41,0.905,1.98,1.38,1.12,1.66,1.37,1.33,1.45,1.25,1.4,3.03,0.391,0.762
SESSYYKSLNL [NGEF_Y289_A286S],0.57,0.876,0.586,0.913,0.503,0.561,0.852,0.627,0.756,0.657,0.624,1.01,0.841,0.623,0.678,0.767
SFNNKYGMVAQ [APOB_Y276_K273N_YF],0.504,0.542,0.384,0.431,0.332,0.462,0.509,0.422,0.51,0.395,0.399,0.4,0.469,0.68,0.435,0.852
SGADSYEMEED [EGFR_Y316_C311S],0.585,1.29,0.561,0.722,0.574,0.749,1.12,0.668,1.16,0.625,0.52,0.822,0.871,0.701,0.728,0.979
SGDDGYAKDAQ [TENM4_Y1530_K1535Q],0.394,0.818,0.379,0.418,0.446,0.575,0.832,0.493,0.866,0.508,0.557,0.45,0.615,0.769,0.572,0.979
SGDVQYRSSVR [FREM2_Y2158_T2153S],0.332,0.442,0.364,0.348,0.472,0.481,0.396,0.378,0.608,0.375,0.377,0.378,0.432,0.883,0.514,0.812
SGGMDYGMVGG [TNRC6B_Y1382],0.806,0.571,1.95,0.384,0.471,0.52,0.517,0.702,0.574,2,0.389,0.404,0.494,0.765,0.401,0.765
SGPRRYTMAAL [TTR_Y125_I127M],0.466,0.677,0.533,0.44,0.396,0.555,0.601,0.488,0.611,0.416,0.383,0.423,0.459,0.505,0.487,0.787
SGSFRYGSSFE [SELE_Y390_C394F],0.438,0.692,0.425,0.426,0.463,0.489,0.629,0.389,0.686,0.526,0.484,0.419,0.528,0.52,0.564,0.627
SHSMRYFYTAV [HLA-C_Y31_D33Y],0.689,1.04,0.928,3.29,0.71,0.691,1.2,0.631,1.26,0.611,0.587,0.778,0.893,1.97,2,1.28
SIKDKYVTALF [KCNH2_Y611_YF],0.5,0.684,0.502,0.471,0.449,0.668,0.742,0.498,0.846,0.465,0.441,0.525,0.488,0.693,0.433,0.8
SIKHKYVTALF [KCNH2_Y611_D609H_YF],0.474,0.674,0.402,0.4,0.471,0.524,0.694,0.419,0.622,0.377,0.416,0.354,0.511,0.901,0.473,0.78
SISYDYCRVPM [BST2_Y8_T4I],9.95,3.91,1.17,2.98,11,1.03,3.05,2.62,1.17,0.965,3.87,7.84,5.46,0.705,0.831,1.01
SIVEDYRPPFY [ACVRL1_Y421_G416S],0.551,1.22,0.472,0.496,0.785,0.995,1.1,0.427,1.25,0.483,0.804,0.552,0.743,0.622,0.462,0.599
